Measured values as given in ChEMBL document CHEMBL1156528, “Acetyl-lysine analog peptides as mechanistic probes of protein deacetylases” (J Biol Chem, 2007).

What was measured:
[1] = substrate: C[C@H](NC(=O)[C@H](CCCCNC(N)=O)NC(=O)CNC(=O)CNC(=O)[C@@H](NC(=O)[C@H](CO)NC(=O)[C@@H](N)CCCCN)[C@@H](C)O)C(=O)N1CCC[C@H]1C(=O)N[C@@H](CCCNC(=N)N)C(=O)N[C@@H](CCCCN)C(=O)N[C@@H](CCC(N)=O)C(=O)O; assay: (§1) Activity of Saccharomyces cerevisiae Hst2
[2] = substrate: CC(=O)NCCCC[C@H](NC(=O)CNC(=O)CNC(=O)[C@@H](NC(=O)[C@H](CO)NC(=O)[C@@H](N)CCCCN)[C@@H](C)O)C(=O)N[C@@H](C)C(=O)N1CCC[C@H]1C(=O)N[C@@H](CCCNC(=N)N)C(=O)N[C@@H](CCCCN)C(=O)N[C@@H](CCC(N)=O)C(=O)O; assay: as §1

B1: NAD-dependent protein deacetylase HST2 (Saccharomyces cerevisiae S288c), P53686 (protein)
chain: MSVSTASTEMSVRKIAAHMKSNPNAKVIFMVGAGISTSCGIPDFRSPGTGLYHNLARLKLPYPEAVFDVDFFQSDPLPFYTLAKELYPGNFRPSKFHYLLKLFQDKDVLKRVYTQNIDTLERQAGVKDDLIIEAHGSFAHCHCIGCGKVYPPQVFKSKLAEHPIKDFVKCDVCGELVKPAIVFFGEDLPDSFSETWLNDSEWLREKITTSGKHPQQPLVIVVGTSLAVYPFASLPEEIPRKVKRVLCNLETVGDFKANKRPTDLIVHQYSDEFAEQLVEELGWQEDFEKILTAQGGMGDNSKEQLLEIVHDLENLSLDQSEHESADKKDKKLQRLNGHDSDEDGASNSSSSQKAAKE
- Vmax [1]: 1.3 s⁻¹
- kcat [1]: 1.2 ×10⁻² /s
- kcat [2]: 0.2 s⁻¹
